Tests used:
[1] = biological target: UPP-G224L, recombinant (Arabidopsis thaliana); assay: SEC
[2] = biological target: Arabidopsis uracil phosphoribosyltransferase (UPP), wild type, recombinant (Arabidopsis thaliana); assay: SEC

stoichiometry N [1]	stoichiometry N [2]	Substance
2	–	UPP-G224L, recombinant (enzyme)
–	4	Arabidopsis uracil phosphoribosyltransferase (UPP), wild type, recombinant (enzyme)

Source: article doi:10.1101/2023.08.28.555145
